{"source": "paper PMC4837482", "about": "“The complex binding mode of the peptide hormone H2 relaxin to its receptor RXFP1” (Nature Communications, 2016)", "assay_in_all_cases": "cAMP activity assay (pCRE β-galactosidase reporter), transfected HEK293T cells", "assay_type_in_all_cases": "cell-based", "key": {"RXFP1 G41A": {"molecular_target": "T1, RXFP1 G41A (Homo sapiens, UniProt Q9HBX9, G63A)", "T1 construct": "transiently transfected human embryonic kidney (HEK) 293T cells expressing full-length RXFP1 and mutants; expressed in transfected cells; host or cells: HEK293T", "T1 sequence (Q9HBX9 23-757 G63A limits assumed)": "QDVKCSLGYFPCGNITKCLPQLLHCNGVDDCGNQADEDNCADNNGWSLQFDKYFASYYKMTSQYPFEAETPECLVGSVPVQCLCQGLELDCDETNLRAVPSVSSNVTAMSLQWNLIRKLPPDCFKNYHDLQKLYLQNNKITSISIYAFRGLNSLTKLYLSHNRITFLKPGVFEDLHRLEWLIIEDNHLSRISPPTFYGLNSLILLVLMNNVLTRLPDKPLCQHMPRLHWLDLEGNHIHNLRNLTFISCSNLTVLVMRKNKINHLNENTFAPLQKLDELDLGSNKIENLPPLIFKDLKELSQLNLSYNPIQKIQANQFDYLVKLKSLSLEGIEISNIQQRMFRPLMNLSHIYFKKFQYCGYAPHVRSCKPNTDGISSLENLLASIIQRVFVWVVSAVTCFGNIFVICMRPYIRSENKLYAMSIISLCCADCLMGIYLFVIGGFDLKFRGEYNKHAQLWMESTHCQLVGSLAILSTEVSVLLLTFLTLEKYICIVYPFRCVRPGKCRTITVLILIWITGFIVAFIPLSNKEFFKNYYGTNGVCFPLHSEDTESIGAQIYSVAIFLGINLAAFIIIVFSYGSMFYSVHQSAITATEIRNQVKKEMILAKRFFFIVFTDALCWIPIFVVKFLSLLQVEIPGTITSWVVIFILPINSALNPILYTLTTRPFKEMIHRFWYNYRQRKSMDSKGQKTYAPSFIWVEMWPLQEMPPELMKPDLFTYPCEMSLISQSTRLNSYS", "details": "construct G41A, ±s.e.m.", "summary_of_the_method": "(§1)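 Stim: H2 relaxin in minimal media/1% DMSO; +ctrl 5 μM Forskolin, −ctrl vehicle. Plates frozen −80 °C o/n, lysed 10 min + 10 min in Na2HPO4 pH 8.0 buffers, CPRG substrate, A570. Data = % Forskolin max.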"}, "RXFP1 T61A": {"molecular_target": "T2, RXFP1 T61A (Homo sapiens, UniProt Q9HBX9, T83A)", "T2 construct": "cells expressing full-length RXFP1 and mutants; expressed in transfected cells; host or cells: HEK293T", "T2 sequence (Q9HBX9 23-757 T83A limits assumed)": "T1 sequence (Q9HBX9 23-757 G63A limits assumed) with A41G, T61A", "details": "construct T61A, ±s.e.m.", "summary_of_the_method": "as §1"}, "RXFP1 Y57A": {"molecular_target": "T3, RXFP1 Y57A (Homo sapiens, UniProt Q9HBX9, Y79A)", "T3 construct": "cells expressing full-length RXFP1 and mutants; expressed in transfected cells; host or cells: HEK293T", "T3 sequence (Q9HBX9 23-757 Y79A limits assumed)": "T1 sequence (Q9HBX9 23-757 G63A limits assumed) with A41G, Y57A", "details": "construct Y57A, ±s.e.m.", "summary_of_the_method": "as §1"}, "[1]": {"details": "percentage of maximum response to 5 μM Forskolin"}}, "note": "Residue numbers refer to the chain shown, from its start.", "data": [{"substance": "H2 relaxin: two-chain 6-kDa peptide hormone structurally related to insulin; recombinant human gene-2 H2 relaxin provided by Corthera", "values": [{"measurement": "H2 relaxin pEC50", "setting": "RXFP1 G41A; cAMP reporter", "result": "11.13±0.1 (3)"}, {"measurement": "H2 relaxin Emax", "setting": "RXFP1 G41A; [1]", "result": "104.7±1.65 (3) %"}, {"measurement": "H2 relaxin pEC50", "setting": "RXFP1 T61A; cAMP reporter", "result": "11.15±0.17 (5)"}, {"measurement": "H2 relaxin Emax", "setting": "RXFP1 T61A; [1]", "result": "142.58±15.97 (4) %"}, {"measurement": "H2 relaxin pEC50", "setting": "RXFP1 Y57A; cAMP reporter", "result": "10.93±0.10 (5)"}, {"measurement": "H2 relaxin Emax", "setting": "RXFP1 Y57A; [1]", "result": "126.7±8.46 (5) %"}]}]}
